Experimental data reported in US20180326053A1 (OKLAHOMA MEDICAL RESEARCH FOUNDATION, published 2018).
Numbering of substitutions follows the chain as printed. Names and notes keep the numbering of the source. Blank lines part the entries; values can stand above or below the binder they belong to.

Legend:
[1] = target: T1, human Protein C (unactivated, zymogen) (human, UniProt P04070 43-461); test: ELISA, plate coated with human PC, IgG titrated (PC-ELISA)
T1 construct: mature; also called PC; hPC
Method: (§1) Plates (Nunc, cat#442404) were coated with 100 μl of human aPC (1 μg/ml) or hPC (2 μg/ml) diluted in DPBS (Gibco, cat#14040) overnight (o/n) at 4° C. After washing, the ELISA plate was blocked with 200 μl MPBST for 1 hr at RT, and tapped dry on a stack of paper towels. To each well 100 μl of IgG to be tested was added, and incubated for 1 hr at RT (for EC₅₀ determinations 1:3 dilutions were performed starting at 20 nM). Plates were washed 5× with PBST. 100 μl of anti-hIgG Fc-HRP (Sigma, cat#A0170) diluted 1:10,000 in PBST was added to each well. Plates were washed and 100 μl/well of TMB substrate was added and incubated at room temperature for 5 min. 100 μl/well of 1 N HCl was added to terminate the reaction. The plate was read with an ELISA plate reader (Biotek, Elx405) at 450 nm wavelength.

[2] = target: T2, human activated Protein C (human, Light chain (chain 1): the Gla domain holds gamma-carboxyglutamates, from memory at pos 6, 7, 14, 16, 19, 20, 25, 26 and 29, written E. Pos 71 is beta-hydroxy-Asp, written D. N-glycans are present. …); test: aPC-ELISA, human aPC coated, IgG titrated
T2 construct: also called aPC; APC
T2 light: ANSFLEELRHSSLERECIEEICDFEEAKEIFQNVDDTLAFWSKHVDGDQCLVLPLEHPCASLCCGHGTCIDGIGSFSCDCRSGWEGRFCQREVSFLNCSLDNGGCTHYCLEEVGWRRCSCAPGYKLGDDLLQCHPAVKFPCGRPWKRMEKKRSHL
T2 heavy: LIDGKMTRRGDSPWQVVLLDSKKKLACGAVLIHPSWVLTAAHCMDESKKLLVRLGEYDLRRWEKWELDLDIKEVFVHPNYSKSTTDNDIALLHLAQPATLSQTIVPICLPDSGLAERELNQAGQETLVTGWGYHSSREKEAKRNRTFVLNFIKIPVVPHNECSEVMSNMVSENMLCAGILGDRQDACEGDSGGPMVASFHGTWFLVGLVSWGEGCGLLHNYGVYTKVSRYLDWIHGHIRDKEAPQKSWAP
Method: as §1

[3] = target: T2, human activated Protein C; test: SPR, human aPC
[4] = target: T1, human Protein C (unactivated, zymogen); test: PC-ELISA, hPC coated
Method: as §1

[5] = target: T2, human activated Protein C; test: Biacore (SPR)

B1: TPP-3656 (HU1573-V3-hIgG2Kappa) (antibody, V domains shown)
VH: EVQLVESGGGLVQPGGSLRLSCAASGFTFSNYYLNWVRQAPGKGLEWVGDIRLKSNNYEKHYAESVKGRFTISRDDSKNSLYLQMNSLKTEDTAVYYCAREGDYFDYWGQGTLVTVSS
VL: DIVLTQSPASLAVSPGQRATITCKASESVDSFGATFMHWYQQKPGQPPKLLIYLASNLESGVPARFSGSGSGTDFTLTINPVEANDTANYYCQQNNEDPYTFGQGTKLEIKR
notes: also called TPP-3656 VK7-3
binding result [1]: no binding (tested: 10 µM (log M -5))
EC50 [2]: 670 pM

B3: TPP-3356 (H1573VK2-VH1Cgl1-hIgG2Kappa) (antibody, V domains shown)
VH: B1 VH with G49A, A99I, L113T
VL: DIVMTQTPLSLSVTPGQPASISCKASESVDSFGATFMHWYLQKPGQPPQLLIYLASNLESGVPDRFSGSGSGTDFTLKISRVEAEDVGVYYCQQNNEDPYTFGQGTKLEIKR
notes: also called TPP-3356 VK2D-29
Kd [3]: 13600 pM
EC50 [2]: 500 pM
binding result [4]: no binding (tested: up to 10 µM)

B4: TPP-3658 (HU1573-V1-hIgG2Kappa) (antibody, V domains shown)
VH: B1 VH with G49A, A99I, L113T
VL: B1 VL
notes: also called TPP-3658 VK7-3
binding result [1]: no binding (tested: 10 µM (log M -5))
EC50 [2]: 650 pM

B5: TPP-4885 (BAY1896502) (antibody, human IgG2, kappa, V domains shown)
VH: B1 VH
VL: B1 VL with N85D
notes: TPP-3656 with the N85D mutation in the light chain; IgG2/kappa like TPP-3656; also called type II ab BAY1896502
Kd [5]: 14000 pM

B7: TPP-3357 (H1573Vk2A-VH1Cgl2-hIgG2Kappa) (antibody, V domains shown)
VH: B1 VH with N31S, L34M, G49S, E64D, D76N, S77A, K89R, T90A
VL: B3 VL with M4L, K24R
Kd [3]: 23400 pM

More lines, now with the values ahead:

binding result [1]: no binding (tested: 10 µM (log M -5))
EC50 [2]: 430 pM
B2: TPP-3657 (HU1573-V2-hIgG2Kappa) (antibody, V domains shown)
VH: EVQLVESGGGLVQPGGSLRLSCAASGFTFSNYYLNWVRQAPGKGLEWVADIKSNNYEKHYAESVKGRFTISRDNAKNSLYLQMNSLRAEDTAVYYCAREGDYFDYWGQGTLVTVSS
VL: B1 VL
notes: also called TPP-3657 VK7-3

EC50 [2]: 420 pM
binding result [4]: no binding
B6: TPP-3639 (HU1573-V4-hIgG2Kappa) (antibody, V domains shown)
VH: B1 VH with N31S, L34M, G49A, E64D, D76N, S77A, K89R, T90A
VL: B1 VL with K24R
notes: also called TPP-3639 VK7-3
